Test results: the DeepSol protein solubility set

Test: soluble on expression in E. coli; label from the status in PepcDB or PDB records
With “SAEDGLPKIYSHPPTESSKTPTAATIFFGADNAIPKSETTITSEGDHVTSVNEYMLESDFSTTTDNKLTAKKEKLKSEDDMGTDFIKSTTHLQKEITSLTGTTNSITRDSITEHFMPVKIGNISSPVTTVSLIDFSTDIAKEDILLATIDTGDAEISITSEVSGTLKDSSAGVADAPAFPRKKDEADMSNYNSSIKSNVPADEAVQVTDSIIPEAEIPPAPEESFTTIPDITALEEEKITEIDLSVLEDDTSAVATLTDSDEKFITVFELTTSAEKDKDKREDTLLTDEETTEGASIGMERDTANEAETHSVLLTAVESRYDFVVPASIATNLVEESSTEEDLSETDNTETVPKITEPFSGTTSVLDTPDYKEDTSTTETDIFELLKEEPDEFMI” the “soluble on expression in E. coli” value was “not soluble”. With “MTNPNIPDDLLAKIAKKMADKCWWYLGPMLKSGPRGRDIVYRPDVLKNANIFSMCDDPDDFYAAGHDPNDINSEGRYRPFFKWCLQAGNPTAIYHEGLRLVTHESDIQGAILHLERIAPRNAAATLACAILYICAGNAHMGGVYLRLFGSNHYALESEDARDI” the “soluble on expression in E. coli” value was “soluble”. With “MGSDKIHHHHHHMGNCQILSSGDKIKLIRKKYGLRQDDIVGEEVTRNLISQIEHNKAKLTKSTAEIIIKNLKEIAKKNNLEMDVTADYLLEDELAQANSILENYVDELKNLLVYKCSRFYESLKSAEEFLIQWDIKEKKVQIYELAGDYFYIQNDLAKSVLYYEKAFDILDKTSYNKSLLSILRKLSLMYLNSLKYDRSIECCNFALNHFKNMPDDYISIFLFNTALCYYYMHYYEKALEVIDNLEPLIKDNTSKLIDVLNNKACCLSDLNRIDEAAEIYLRIFNLLNTNNIKSSQYLLILSNLIDTFAKKDVKDEVIKYLNLLLDRFPTSSQDDSYLSVACFNAAKAFIYLGDLQKAEEYLLKALTLSKNHNKYSLQEKTLSLLTDLYIQLNDFEKLEEINLEAVVLSNSQQKVCTNIFYKLLKFLNQNNKTEDIDKILNFLIKFK” the “soluble on expression in E. coli” value was “not soluble”. In the case of “MGSDKIHHHHHHMGRRGLMTETTYYVNGTEVYVAEIPSNQSTETFFLIHGFVSSTYSYRKLMPLLAKRGRVISVDLPGFGRSGKGRTFTYSFQCYAELMVALMRKLNVSKVTFVGHSMGGQVALYVAKWKPHLVKRLVLLSSSGYLQRVKRPFYFLSYIPFLRQMVKWYVQRQDVTKALQQVVYNKGIVNNEAVEMYRLPLADETFYDALLCLMRQREGDLPKEELRKIHHPVLLLWGEQDRVIPVKIGQRLASDLPNASLIVYKNTGHLLPEERPKEIMKAIDRFIRKRRQFSFFS”, the “soluble on expression in E. coli” value is reported as “not soluble”. In the case of “MGSDKIHHHHHHMSLHAPTFSKLFSGVIWKIIADSDTGTVYVETRDGDKRKALFHAFDLQAKKMLWADVSILDAWWSSLKIANKGNLLVVKFNDPDMPEQRGFAVIDGKTSKLLWGKDDAQVMQAEPDGIIVAEGKEEDSSYLKLDWAAGKTLGAVSVKEMFSGFNKKAQTRSFVLYPFHFEEENSFFSKIKEYIEIITGHKAVRMIEYLEKGDKVLISYYIYEEEKLTNFILVADEKGALLVHEKLNAGLKGIGMDTFFVLKDQLIVVKNNNELQSYVIK”, the “soluble on expression in E. coli” value is reported as “not soluble”. With “TSKFQWTSDFNIGFNRNRVTELYGGKPELKGLKRLEEGRDMDEWYLREWAGVDPANGSPLWYTTDENGKRTTTDSYNKADRVYCGSAAPKFTGGWMNSFSYKGFTLTANFDFVYGNLLYNQSRELLDSDGAYADYNSMKLKSGWKRWEKEGDIATHPKAINGGNKNSNKSSSRYLEKGNYFSLRNLSLGYSIPEKLCGKLGLQRVNVSCSADNLFTLTPFSGVSPQLSDSSTDGYAGTIYPLSRRIVFGLNVSF” the “soluble on expression in E. coli” value was “not soluble”. In the case of “MTYEIVIAGFGGQGVLSMGKILAYSGLMEDKEVSWMPSYGPEQRGGTSNVTVIVSDEQVSSPVLNEYDIVIVLNQPSLDKFEARVKKGGILVYDPDSIVLKNKRDDIQIYEVDATQESLRMGNQKAFNMIVLGGVLKVAPMVKIESVIKGLKKTLPERHHKLIPMNEQAIQRGMEIIKQIH”, the “soluble on expression in E. coli” value is reported as “not soluble”. In the case of “SLLASTRHIARGDTGNVSVRIRRVTTTRAGGVSAPPFDTFNLGDHVGDDPAAVAANRARLAAAIGLPGNRVVWMNQVHGDRVELVDQPRNTALDDTDGLVTATPRLALAVVTADCVPVLMADARAGIAAAVHAGRAGAQRGVVVRALEVMLSLGAQVRDISALLGPAVSGRNYEVPAAMADEVEAALPGSRTTTAAGTPGVDLRAGIACQLRDLGVESIDVDPRCTVADPTLFSHRRDAPTGRFASLVWME”, the “soluble on expression in E. coli” value is reported as “not soluble”. In the case of “MLSGTLFHKDVSIYSLFEELADKLNQKIEKRERLVKASRDVTYQSKKAIYLLHRAADEDLFSICSSAKEQLENIRQLICKLLLPELSAEEYFRFHSVFTIALQEYTEARLFLSYLSEGRALTLDEINAEISQQWQSLLENSEEARIY”, the “soluble on expression in E. coli” value is reported as “soluble”. With “MTSQPTSSLQGSCSICFEDLKQNDKISAIVCGHIYHHGCISQWIATKRQCPSCRRTVPKNGFVEKLFFDVQRMGGEAEKPPEIDYREEHYKLSTSLKVEQEKLGTLNTENKNLKDTVKSLEKKIIREKDKYRQEIPKLQATINHLTISSEETAYLKRELQESKNRLKTCEFYKILTVHSSEADKQLGEYLKKNGNLDTEKFFQLMKSTNKDLTDKRREAAKEIEQLKMEVQSLKRAAQEDAAIKKV” the “soluble on expression in E. coli” value was “not soluble”. With “MGSDKIHHHHHHERHEFIIEVVGNAYLDDVMDWYQPSYGDYLVQAHPVIVLYYPDESYAYYERATFYEQYNDFVAAAGVIVDTADLKNDLGRIWNSYYPIYDVDVWWQADREEWQARVKGLTRDVNITTFFVVTFNGRDNYCEVVDIKDEGEIYLDNNGVYHLGPLSGVDGFAAFVQENPSRLTLESNTKILGAEVRWIK” the “soluble on expression in E. coli” value was “not soluble”. With “MKQLTILGSTGSIGCSTLDVVRHNPDSFRVIALVAGKNVARMAEQCLEFSPRYAVMDDTSSAEQLKIMLQQHGSRTEVLSGQQAACEMAALDEVGHVMAAIVGAAGLLPTLAAIRAGKTILLANKESLVTCGRLFMDEVKRSNARLLPVDSEHNAIFQSLPQSIQHNLGYADLEQNGVTSILLTGSGGPFRETPMCDLAAMTPDQACRHPNWSMGRKISVDSATMMNKGLEYIEARWLFNASARQMEVLIHPQSVIHSMVRYQDGSVLAQLGEPDMRTPIAHTMAWPNRVTSGAQPLDFCKLSALTFSAPDYQRYPCLKLAMEAFEQGQAATTALNAANEITVAAFLAQQIRFTDIAGLNLAVLERMDLQEPASVEDVLQVDAIAREVARKQVIRLSR” the “soluble on expression in E. coli” value was “not soluble”. In the case of “MGSDKIHHHHHHMLDAQNVSVGYDEKTPIIQQLSFQVHKGEIFGILGPNGSGKTTLLKAVSGLLSPSEGTITLHGKAIADYHSKELAQKMAVLPQTADTAFAYKVKEVVALGRYPHQKGWLASESQEDERVIREAMEQTDTWKFRNKPLQTLSGGERQRALLARALCQEPDLLLLDEPTNHLDISHQMQLLDALKDWTRTRQLTVVAILHDLNMASLYCDRVLLLNEGRMVDLNSPRQVMTEHQLANVYETKIRRNEHPTIPRPLVTFEPAAIRSKPSSPISELEVFTSEQLIKVTSSIRWKTLSSAVLGAGFKWHQTFVNRHVSKDYYCDDVEREFQTFLSNVGVDGTDALGMMTAAILEDVAITEATYESFKVRVFVTAGISNAVDAAKAHLRKRNEATVGTINTWVFIEGTLPDAAYVQALMTATEAKGRALAEKEILDPVTGTLATGTSTDSVMIASSQTGTYFPYAGTITPLGQAIGKLVYDATIQAVTDNEKRRLER”, the “soluble on expression in E. coli” value is reported as “not soluble”. For “MQIYTADGKLIGEVGEQRRIPVKLADVPQRLIDAFLATEDSRFYDHHGLDPIGIARALFVAVSNGGASQGASTITQQLARNFFLTSEKTIIRKAREAVLAVEIENTLNKQEILELYLNKIFLGYRSYGVAAAAQTYFGKSLNELTLSEMAIIAGLPKAPSTMNPLYSL”, the “soluble on expression in E. coli” value was “not soluble”. With “MAAEDELQLPRLPELFETGRQLLDEVEVATEPAGSRIVQEKVFKGLDLLEKAAEMLSQLDLFSRNEDLEEIASTDLKYLLVPAFQGALTMKQVNPSKRLDHLQRAREHFINYLTQCHCYHVAEFELPKTMNNSAENHTANSSMAYPSLVAMASQRQAKIQRYKQKKELEHRLSAMKSAVESGQADDERVREYYLLHLQRWIDISLEEIESIDQEIKILRERDSSREASTSNSSRQERPPVKPFILTRNMAQAKVFGAGYPSLPTMTVSDWYEQHRKYGALPDQGIAKAAPEEFRKAAQQQEEQEEKEEEDDEQTLHRAREWDDWKDTHPRGYGNRQNMGAAAAAALEHHHHHH” the “soluble on expression in E. coli” value was “not soluble”. In the case of “MSLSHLLELYINFKGEAKEAIAFYEDVFDTKCQNLMTFGEAPEDPEHPINDEIKDLVMNASIIIEGTYVMISDVPDMFGFEVTEGNNLSLVVSTDDDEKIDRLFKRLSEGGTVTMPFLKLFGPKSMVPEGGSHHHHHH”, the “soluble on expression in E. coli” value is reported as “soluble”. In the case of “QIDYMTNSDMGYDYRNKLIIDVFGLDPQIVSTMRTEIAKIPGITGIGLTRGTPLNGGNNNSSEYRGRPLSMQIFSIDSVALSLFDLKMKPNGRKADKPDRTLYLSRSAYNDFDVANLPDGVIHWGKAGEFYYCGDAPEVHFGGFKEPHPSYLFIPYPQSSAWSWSVLVGYSEGADPEQLIQSIQAVYSRITGQPYTEILRSEDIIASHSEEERSLS”, the “soluble on expression in E. coli” value is reported as “not soluble”. For “MGSDKIHHHHHHMIKWRDGKLGLPIKEAVELFPELKNFLDEKGRLDFSNREARILYNKAVAKVLFDLDIEYHPKGLVTPPISRYIFLKTFLRGGEKVLEIGTGHTALMSLIAEKVFKCDVTATELDNEFYSYAKLNIARNNSRIKLLKSSGGIIRGVVPRGERFDVIFSAPPYYEKHSGGVLTEREALGGGKFGEEFSIKLLNEALDYLNAGGKVALFLPHKRDLLNAIKMKGIRLGYEVRDILFKVGTRKRHSLILTV”, the “soluble on expression in E. coli” value was “not soluble”. In the case of “LPAYEKQVEVVEKDLEQVHICLGTKAFPQNHPRRFEVYLVNTLLGGSMSSRLFQEIRERLGLAYSVYSYVVSHTDAGSLVVYVGTSPEKLDDVLDITVAELKRLKTELVPLPELESAKEQIKGSIYLSLESSDNRMTKLAKNEIYFGRYIPIHELADGFDSVTSRGILELAGEIFDERYLTLALMGKIDSAAFDVSRLAL”, the “soluble on expression in E. coli” value is reported as “not soluble”. For “MGRFHRHDDGTVHSHDHDHHGHSHDVGDHSGYETGRERIEVLEDIFHENDHCAADNKELFDAHQVRCINIMSSPGAGKTTVLQHVLRAAEGKVRVGVVEGDIETSLDADRLTGFGAQISLLNTGNGFGGECHLDAPMVSRALRGLDLDTLDVVLIENVGNLVCPAEFEVGEHSKAMIYSVTEGEDKPLKYPVMFRSVDAVVINKIDLLPYLDFDMELFMKNLRQVNPDAKVFEVSAKTGEGLDGWIEWLVGAK”, the “soluble on expression in E. coli” value was “not soluble”. With “MGSDKIHHHHHHMPYFERDGYYIDRCPECRFVYVRNVPSDGTLAAFYSGYYGDVNEFVPVSRKRLSKRFSKSVENWWHARNLVRCAAGRRKLLEIGYGEGHLLMALKQTRRFELRGIDYATGPMAYMSANGIDVAQGSLFDQHYPDNRFEFIVGFHVLEHVQHLGEFMSEVRRVLAPAGRVYFVVPCVTHFSAVRRRQNWKHFGPPGHLWYFSVTAMRRFMTDQDFKVVSAHCISNRTHLTVLAEKTS” the “soluble on expression in E. coli” value was “not soluble”. In the case of “MGSDKIHHHHHHMQKESIYGLTREQLVDWFLAHGEKKFRATQVWEWLYTKRVASFSEMSNISKSLMTLLEENFSLNPLKQVIVQEAQDGTVKYLFELPDKNMIETVLMRQEYGLSVCVTTQVGCNIGCTFCASGLLKKQRDLTAGEIVAQIMWVQHYFDERGLDERVSHVVVMGIGEPFDNYANVMNFLRTINDDKGLAIGARHITVSTSGLVPKIREFADSGLQVNLAISLHAPNNEVRTSIMRINRSFPIEKLMAAIDEYIEKTNRRVTFEYIMLSQVNDRPEHAQQLADLLRNKKKLSYVNLIPYNPVSEHDQYSRSSKEAVLKFYDVLKKNGINCVIRKEHGTDIDAACGQLRSKQMKKEKVKNQ”, the “soluble on expression in E. coli” value is reported as “not soluble”. For “MAHHHHHHMNAMYSADQIHVPPELGTIMKQYTKAVMRDKPTDLYKYSANFFAILSGYAAPFDSEGQLMENGVQEASSRSTVPISFGSEKEENAGSQDPTDILLRRYDRTGTGYMDPAELPQLLAELRMNLSLDEKDVVSAEDILAALPSACDQIDLLELRNLLLESMGD”, the “soluble on expression in E. coli” value was “soluble”.
